# The Human Domainome abundance scans (Beltran et al. 2025)
# ± gives the uncertainty stated by the source.
# B1: Ankyrin-1, residues 1405 to 1484; numbered along this chain, P16157 (parent)
# chain: MKMAVISEHLGLSWAELARELQFSVEDINRIRVENPNSLLEQSVALLNLWVIREGQNANMENLYTALQSIDRGEIVNMLE
# Variants of: B1
# Experiment: abundance fitness (aPCA) (normalised: wild type 0, dead -1); higher = more abundant; growth selection in yeast, the domain comes from the species named
# Conditions: Homo sapiens
row,Variant,abundance fitness
1,I75H,-0.594 ± 0.27
2,L63Q,-0.075 ± 0.23
3,L63V,-0.136 ± 0.042
4,L63M,-0.027 ± 0.087
5,L63N,-0.806 ± 0.36
6,L63P,-0.805 ± 0.2
7,L63E,-0.646 ± 0.24
8,L63I,0.037 ± 0.2
9,L63S,-0.637 ± 0.18
10,G55F,-0.765 ± 0.33
11,G55E,-0.266 ± 0.18
12,G55M,-0.661 ± 0.46
13,N77R,0.08 ± 0.065
14,N77V,-0.078 ± 0.11
15,N77Y,-0.215 ± 0.16
16,N77K,0.03 ± 0.12
17,S13A,-0.021 ± 0.11
18,S13G,-0.237 ± 0.062
19,S13W,-0.494 ± 0.16
20,S13Y,-0.504 ± 0.15
21,S13T,-0.472 ± 0.18
22,S13C,-0.577 ± 0.12
23,S13I,-0.815 ± 0.3
24,E54M,-0.294 ± 0.058

row,Variant,abundance fitness
1,E54S,-0.136 ± 0.052
2,E54A,-0.496 ± 0.077
3,I6V,0.224 ± 0.15
4,W50P,-1 ± 0.26
5,W50L,-0.368 ± 0.082
6,R32V,-0.041 ± 0.059
7,R32I,-0.124 ± 0.071
8,G73N,-0.33 ± 0.15
9,G73R,-0.297 ± 0.04
10,G73C,-0.272 ± 0.096
11,L79P,-0.3 ± 0.12
12,L79R,-0.528 ± 0.082
13,L79E,-0.335 ± 0.11
14,L79Y,-0.319 ± 0.14
15,L79I,-0.019 ± 0.11
16,L79D,-0.54 ± 0.32
17,L79V,0.132 ± 0.049
18,E41C,-0.173 ± 0.075
19,E41A,-0.113 ± 0.057
20,E41R,0.054 ± 0.053
21,E41F,-0.28 ± 0.11
22,E41Q,-0.1 ± 0.12
23,E41T,-0.184 ± 0.072
24,E41G,-0.086 ± 0.035

row,Variant,abundance fitness
1,E41P,-0.574 ± 0.19
2,E41I,-0.579 ± 0.48
3,E8A,-0.175 ± 0.064
4,E8P,-0.24 ± 0.1
5,E8D,-0.3 ± 0.12
6,E8M,-0.426 ± 0.13
7,E8F,-0.424 ± 0.11
8,E8H,-0.398 ± 0.18
9,E8R,-0.054 ± 0.052
10,E8V,-0.518 ± 0.065
11,A45S,-0.03 ± 0.057
12,A45W,-0.921 ± 0.17
13,A45G,-0.248 ± 0.05
14,A45Q,-0.139 ± 0.1
15,A45Y,-0.565 ± 0.15
16,A45L,-0.627 ± 0.088
17,A45E,-0.023 ± 0.074
18,I28E,-0.627 ± 0.11
19,I28K,-0.686 ± 0.18
20,I28S,-0.797 ± 0.11
21,I70P,-0.8 ± 0.19
22,I70C,-0.384 ± 0.094
23,I70H,-0.404 ± 0.45
24,I70M,-0.651 ± 0.19

row,Variant,abundance fitness
1,E26V,-0.233 ± 0.064
2,E26H,-0.113 ± 0.2
3,E26N,0.016 ± 0.15
4,E26A,-0.2 ± 0.066
5,E26P,-0.371 ± 0.089
6,E26I,-0.303 ± 0.15
7,V51F,0.071 ± 0.11
8,V51R,0.065 ± 0.06
9,V51W,0.085 ± 0.087
10,V51M,0.026 ± 0.11
11,A58V,0.124 ± 0.064
12,A58R,-0.049 ± 0.065
13,A58E,-0.192 ± 0.1
14,V44W,-0.021 ± 0.083
15,V44R,0.181 ± 0.051
16,V44D,0.112 ± 0.095
17,V44M,0.142 ± 0.084
18,V44A,0.148 ± 0.059
19,V44C,0.05 ± 0.062
20,N35W,-0.222 ± 0.096
21,N35G,-0.858 ± 0.21
22,N35A,-0.304 ± 0.095
23,S69F,-0.341 ± 0.11
24,S69C,0.056 ± 0.095

row,Variant,abundance fitness
1,S69I,-0.047 ± 0.078
2,S69W,-0.291 ± 0.08
3,S69R,-0.006 ± 0.053
4,S69E,-0.042 ± 0.068
5,S69L,-0.161 ± 0.056
6,S69H,0.342 ± 0.18
7,E20H,-0.12 ± 0.1
8,E20G,-0.49 ± 0.068
9,E20D,-0.508 ± 0.15
10,E20L,-0.411 ± 0.057
11,E20A,-0.136 ± 0.059
12,E20M,-0.077 ± 0.12
13,E20I,-0.135 ± 0.12
14,I31T,-0.774 ± 0.3
15,I31S,-0.938 ± 0.18
16,I31D,-0.918 ± 0.32
17,I31V,-0.192 ± 0.057
18,I31L,-0.149 ± 0.059
19,E80S,-0.056 ± 0.099
20,E80H,-0.06 ± 0.11
21,E80R,-0.17 ± 0.13
22,E80C,-0.092 ± 0.099
23,E80N,-0.045 ± 0.14
24,E61A,0.165 ± 0.21

row,Variant,abundance fitness
1,E61V,-0.523 ± 0.5
2,E61S,-0.284 ± 0.16
3,L12I,0.153 ± 0.32
4,L12N,0.139 ± 0.2
5,L12T,0.063 ± 0.18
6,N57W,-0.175 ± 0.08
7,N57T,-0.154 ± 0.16
8,N57A,-0.212 ± 0.13
9,N57E,0.163 ± 0.15
10,N57G,0.017 ± 0.058
11,N57F,-0.437 ± 0.19
12,L40M,-0.067 ± 0.081
13,L40C,-0.373 ± 0.097
14,G11T,-0.371 ± 0.1
15,G11P,-0.997 ± 0.49
16,S24T,-0.191 ± 0.088
17,S24P,-0.209 ± 0.056
18,M1V,0 ± 0.27
19,S43R,-0.89 ± 0.14
20,S43T,-0.807 ± 0.21
21,S43I,-0.919 ± 0.26
22,S43G,0 ± 0.049
23,A18Q,-0.936 ± 0.38
24,A18R,-0.681 ± 0.1

row,Variant,abundance fitness
1,A18I,-0.77 ± 0.16
2,A18E,-0.39 ± 0.14
3,T65D,0.009 ± 0.065
4,T65E,0.015 ± 0.074
5,T65W,-0.291 ± 0.083
6,T65Q,0.016 ± 0.043
7,T65N,-0.004 ± 0.14
8,S7L,-0.808 ± 0.1
9,S7G,-0.176 ± 0.04
10,S7W,-0.691 ± 0.14
11,S7C,-0.089 ± 0.068
12,K2T,-0.254 ± 0.084
13,K2S,-0.4 ± 0.087
14,K2R,-0.045 ± 0.067
15,K2C,-0.284 ± 0.14
16,K2E,0.095 ± 0.1
17,R53Y,-0.842 ± 0.35
18,R53A,-0.555 ± 0.078
19,R53C,-0.797 ± 0.2
20,W14L,-0.538 ± 0.072
21,W14E,-0.788 ± 0.36
22,W14T,-0.758 ± 0.14
23,W14K,-0.545 ± 0.21
